According to patent US20050187156A1 (Stanford University, published 2005):

Molecular target: T1, GST-εRACK (human εRACK expressed as a GST fusion protein) (human, UniProt P35606 1-906)
T1 construct: 10 ng was immobilized on Glutathione-Sepharose 4B beads; also called immobilized GST-εRACK; not shown: glutathione S-transferase (GST) tag of baculovirus vector PacG3X (BD Biosciences)
T1 sequence (looked up): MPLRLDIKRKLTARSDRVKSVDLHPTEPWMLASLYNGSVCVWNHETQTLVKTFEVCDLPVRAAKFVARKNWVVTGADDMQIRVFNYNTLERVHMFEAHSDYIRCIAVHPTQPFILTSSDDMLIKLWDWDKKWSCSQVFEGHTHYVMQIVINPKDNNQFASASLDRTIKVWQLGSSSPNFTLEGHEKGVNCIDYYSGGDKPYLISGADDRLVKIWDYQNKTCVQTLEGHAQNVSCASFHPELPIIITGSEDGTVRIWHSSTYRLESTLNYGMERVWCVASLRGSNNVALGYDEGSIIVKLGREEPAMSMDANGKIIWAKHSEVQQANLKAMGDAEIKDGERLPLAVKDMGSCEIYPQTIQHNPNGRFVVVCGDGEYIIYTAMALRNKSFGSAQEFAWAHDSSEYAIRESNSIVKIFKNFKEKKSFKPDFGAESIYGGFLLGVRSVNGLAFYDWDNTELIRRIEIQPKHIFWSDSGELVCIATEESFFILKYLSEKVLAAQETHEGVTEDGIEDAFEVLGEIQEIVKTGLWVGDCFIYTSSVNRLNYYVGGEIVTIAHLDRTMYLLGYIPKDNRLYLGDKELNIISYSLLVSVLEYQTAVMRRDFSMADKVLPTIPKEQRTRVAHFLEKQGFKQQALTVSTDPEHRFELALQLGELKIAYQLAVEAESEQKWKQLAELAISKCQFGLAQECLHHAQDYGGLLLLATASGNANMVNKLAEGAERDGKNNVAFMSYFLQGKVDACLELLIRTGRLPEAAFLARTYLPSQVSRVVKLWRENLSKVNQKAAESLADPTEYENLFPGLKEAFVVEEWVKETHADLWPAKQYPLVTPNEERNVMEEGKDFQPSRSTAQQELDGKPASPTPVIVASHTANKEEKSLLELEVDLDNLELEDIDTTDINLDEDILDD
Assay: pull-down of insect cell-expressed εPKC on GST-εRACK immobilized on glutathione-Sepharose beads, no phospholipid activators, Western blot with anti-εPKC V5
Protocol: RACKs bind active PKC [Mochly-Rosen, D. & Gordon, A. S., FASEB J. 12:35-42 (1998); Mochly-Rosen, D. et al., Molec. Biol. Cell. (formerly Cell Regulation) 1:693-706 (1990).
Insect cells expressing either εPKC or GST-εRACK were lysed as described in Example 4. GST-εRACK, 10 ng was immobilized on Glutathion-Sepharose 4B beads (Amersham-Pharmacia), and washed thoroughly with wash buffer (20 mM Tris-HCl pH 7.5, 2 mM EDTA, 100 mM NaCl, 12 mM pME, and 0.1% TritonX-100). Immobilized GST-εRACK was then incubated with the soluble fraction of insect cell lysates containing 100 ng Wt, D(86)A, or D(86)N εPKC protein, in the presence or absence of phospholipid activators (PL) (phosphatidylserine 12 μg/reaction and, Sn-1,2 dioleoylglycerol 400 ng/reaction) for 1 hour at 4° C. Upon thorough washing with wash buffer, bound proteins were eluted in SDS-PAGE sample buffer and proteins separated on 8% SDS-PAGE gels. The amount of εPKC interacting with εRACK was determined by Western blot probing for εPKC with anti εPKC-V5 antibodies. Blots were then re-probed with ant-GST (Santa Cruz) to verify that the same amount of GST-εRACK was present in each binding assay. All other methods for this Example were performed as described, for example, in Example 4.

B1: D(86)A εPKC mutant (enzyme, human, UniProt Q02156 1-737, looked up)
chain: MVVFNGLLKIKICEAVSLKPTAWSLRHAVGPRPATFLLDPYIALNVDDSRIGQTATKQKTNSPAWHDEFVTDVCNGRKIELAVFHAAPIGYDDFVANCTIQFEELLQNGSRHFEDWIDLEPEGRVYVIIDLSGSSGEAPKDNEERVFRERMRPRKRQGAVRRRVHQVNGHKFMATYLRQPTYCSHCRDFIWGVIGKQGYQCQVCTCVVHKRCHELIITKCAGLKKQETPDQVGSQRFSVNMPHKFGIHNYKVPTFCDHCGSLLWGLLRQGLQCKVCKMNVHRRCETNVAPNCGVDARGIAKVLADLGVTPDKITNSGQRRKKLIAGAESPQPASGGSPSEEDRSKSAPTSPCDQEIKELENNIRKALSFDNRGEEHRAASSPDGQLMSPGENGEVRQGQAKRLGLDEFNFIKVLGKGSFGKVMLAELKGKDEVYAVKVLKKDVILQDDDVDCTMTEKRILALARKHPYLTQLYCCFQTKDRLFFVMEYVNGGDLMFQIQRSRKFDEPRSRFYAAEVTSALMFLHQHGVIYRDLKLDNILLDAEGHCKLADFGMCKEGILNGVTTTTFCGTPDYIAPEILQELEYGPSVDWWALGVLMYEMMAGQPPFEADNEDDLFESILHDDVLYPVWLSKEAVSILKAFMTKNPHKRLGCVASQNGEDAIKQHPFFKEIDWVLLEQKKIKPPFKPRIKTKRDVNNFDQDFTREEPVLTLVDEAIVKQINQEEFKGFSYFGEDLMP
notes: Used as the soluble fraction of a Hi5 insect cell lysate containing 100 ng εPKC protein; also called D(86)A ΨεRACK mutant; A mutant
fold binding relative to D(86)N or Wt εPKC (absence of PL activators): ≥ 2 fold
